From patent US20250051455A1 (Hoffmann-La Roche, published 2025)
Positions count from the first letter of the chain named.

B1: HLA-G-0039 (antibody, V domains shown)
VH: EVQLLESGGGLVQPGGSLRLSCAASGFTFSSYAMNWVRQAPGKGLEWVSVISGSGVSTYYADSVKGRFTISRDNSRNTLSLQMNSLRAEDTAVYYCAKDGSYNYGYGDYFDYWGQGTLVTVSS
VL: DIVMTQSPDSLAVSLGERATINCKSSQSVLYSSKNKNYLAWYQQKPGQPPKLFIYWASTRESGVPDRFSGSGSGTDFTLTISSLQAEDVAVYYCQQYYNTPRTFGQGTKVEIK
notes: Human antibody from humanized OmniRat (OMT) rats
B2: HLA-G-0041 (antibody, V domains shown)
VH: B1 VH with S31T, A33G, N35S, S54G, R76K, S80Y, S85R
VL: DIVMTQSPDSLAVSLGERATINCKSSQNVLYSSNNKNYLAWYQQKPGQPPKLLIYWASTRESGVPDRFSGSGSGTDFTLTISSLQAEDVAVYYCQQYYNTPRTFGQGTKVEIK
notes: as for B1
B3: HLA-G-0031 (antibody, V domains shown)
VH: QVKLMQSGAALVKPGTSVKMSCNASGYTFTDYWVSWVKQSHGKRLEWVGEISPNSGASNFDENFKDKATLTVDKSTSTAYMELSRLTSEDSAIYYCTRSSHGSFRWFAYWGQGTLVTVSS
VL: AIVLNQSPSSIVASQGEKVTITCRASSSVSSNHLHWYQQKPGAFPKFVIYSTSQRASGIPSRFSGSGSGTSYSFTISRVEAEDVATYYCQQGSSNPYTFGAGTKLELK
notes: Rat monoclonal antibody obtained from CD rats
B4: HLA-G-0090 (antibody, V domains shown)
VH: QVQLQQSGPGLLKPSQTLSLTCAISGDSVSSNRAAWNWIRQSPSRGLEWLGRTYYRSKWYNDYAVSVQGRITLIPDTSKNQFSLRLNSVTPEDTAVYYCASVRAVAPFDYWGQGVLVTVSS
VL: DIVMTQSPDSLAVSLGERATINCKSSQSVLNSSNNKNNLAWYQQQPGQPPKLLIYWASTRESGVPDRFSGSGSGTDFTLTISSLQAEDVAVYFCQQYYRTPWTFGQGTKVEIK
notes: as for B1

Biological target: T1, recombinant soluble human HLA-G β2M MHC class I complex, monomer (human)
T1 construct: His tagged; biotinylated where coated on streptavidin plates, non-biotinylated in SPR; also called HLA-G-0003; wt HLA-G (monomer)
Assay: blocking ELISA on biotinylated wt HLA-G; competitor ILT-4

Row | % inh. ILT4 (3 µg/ml antibody) [%] | Binder
1 | 23.9 | B1
2 | 18.4 | B2
3 | 39.8 | B3

Biological target: T1, recombinant soluble human HLA-G β2M MHC …
Assay: ELISA, biotinylated wt HLA-G monomer on streptavidin plate
Protocol: (§1) Streptavidin coated plates (Nunc, MicroCoat #11974998001) were coated with 25 μl/well biotinylated human wt HLA-G at a concentration of 250 ng/ml and incubated at 4° C. overnight. After washing (3×90 μl/well with PBST-buffer) 25 μl anti-HLA-G samples (1:3 dilution in OSEP buffer) or reference antibody (G233, Thermo/Pierce #MA1-19449, 500 ng/ml) were added and incubated 1 h at RT. After washing (3×90 μl/well with PBST-buffer) 25 μl/well goat-anti-mouse H+L-POD (Biorad #170-6561, 1:2000 in OSEP) or donkey-anti-rabbit IgG POD (GE #NA9340V, 1:5000 in OSE) was added and incubated at RT for 1 h on shaker. For detection of rat IgGs a mixture of goat-anti-rat IgG1-POD (Bethyl #A110-106P), goat-anti-rat IgG2a-POD (Bethyl #A110-109P) and goat-anti-rat IgG2b-POD (Bethyl #A110-111P) 1:10000 in OSEP was added and incubated at RT for 1 h on shaker. After washing (6×90 μl/well with PBST-buffer) 25 μl/well TMB substrate (Roche, 11835033001) was added and incubated until OD 2-3. Measurement took place on a Tecan Safire 2 instrument at 370/492 nm.
The above table summarizes the binding of different rat anti-human HLA-G monoclonal antibodies, derived from wt protein IMS. Shown are the relative EC50 values [ng/ml] of the respective binding to rec. wt monomeric, dimeric and trimeric HLA-G proteins as assessed by ELISA. The ELISA was set up by coating the biotinylated wt HLA-G antigen to strepdavidin plates. After incubation and washing steps, the respective antibodies were bound in a concentration range from 10-0 μg in 1:2 dilution steps. Detection of bound antibodies was carried out by anti-Fc-antibody-POD conjugates. EC50 values were determined from the resulting binding curves at the antibody concentrations generating the half-maximal signal. In case of the non-biotinylated HLA-G dimer and trimer antigens, immobilization was carried out by random coating on assay plates.

Row | EC50 [nM] | Binder
4 | 7.35 | B1
5 | 4.95 | B2
6 | 7.19 | B3

Biological target: T1, recombinant soluble human HLA-G β2M MHC …
Assay: as above
Remark: another data set of the same source
Protocol: as §1
(§2) The above table summarizes the binding of different rat anti-human HLA-G monoclonal antibodies, derived from wt protein IMS both of wt as well as OMT rats. Shown are the relative EC50 values [ng/ml] and maximal OD of the respective binding to rec. wt monomeric HLA-G protein or the socalled gegrafted HLA-G (HLA-A consensus sequence on HLA-G backbone) protein as assessed by ELISA. The ELISA was set up by coating the biotinylated wt HLA-G or consensus antigen to strepdavidin plates. After incubation and washing steps, the respective antibodies were bound in a concentration range from 10-0 μg in 1:2 dilution steps. Detection of bound antibodies was carried out by anti-Fc-antibody-POD conjugates. EC50 values were determined from the resulting binding curves at the antibody concentrations generating the half-maximal signal.

Row | Max. OD [OD] | Binder
7 | 3.4 | B4
8 | 1.4 | B1
9 | 2.3 | B2
10 | 1.6 | B3

Biological target: T1, recombinant soluble human HLA-G β2M MHC …
Assay: blocking ELISA on biotinylated wt HLA-G; competitor c-myc ILT-2
Protocol: Streptavidin coated plates (Nunc, MicroCoat #11974998001) were coated with 25 µl/well biotinylated human wt HLA-G at a concentration of 500-1000 ng/ml and incubated at 4° C. overnight. After washing (3×90 μl/well with PBST-buffer) 25 μl anti-HLA-G samples were added in decreasing concentrations starting at 10 or 3 μg/ml, then diluted in 1:3 or 1:2 steps and incubated 1 h at RT. After washing (3×90 μl/well with PBST-buffer) 25 μl/well c-myc-tagged recombinant ILT-2 receptor was added at a concentration of 200 ng/ml and incubated for 1 h at room temperature. […] After washing (3×90 μl/well with PBST-buffer), 25 μl/well TMB substrate (Roche, 11835033001) was added and incubated until OD 2-3. Measurement took place on a Tecan Safire 2 instrument at 370/492 nm
The table above summarizes the extent of ILT-2 and ILT-4 blocking of different antibodies bound to HLA-G at a concentration of 3 μg/ml, relative to an HLA-G:receptor interaction that is not blocked. HLA-G-0090 was tested in a separate experiment for ILT2 blockade, ILT4 blocking was not assessed

Row | % inh. ILT2 (3 µg/ml antibody) [%] | Binder
11 | 14 | B1
12 | 17.4 | B2
13 | 72.8 | B3

Biological target: T1, recombinant soluble human HLA-G β2M MHC …
Assay: ELISA (EC50 rel), biotinylated wt HLA-G monomer on streptavidin plate
Protocol: as §1, §2

Row | EC50 [ng/mL] | Binder
14 | 10.4 | B4
15 | 7.35 | B1
16 | 8.6 | B2
17 | 7.19 | B3
